From PMC9482650, “Quantitative fragmentomics allow affinity mapping of interactomes” (Nature Communications, 2022)

T1: DFNB31_3, Q9P202
T1 sequence (Q9P202 811-907, limits assumed, looked up): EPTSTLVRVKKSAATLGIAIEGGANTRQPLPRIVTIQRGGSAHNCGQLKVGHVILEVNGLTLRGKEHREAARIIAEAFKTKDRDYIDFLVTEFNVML

T2: SNTB1, Q13884
T2 sequence (Q13884 107-205, limits assumed, looked up): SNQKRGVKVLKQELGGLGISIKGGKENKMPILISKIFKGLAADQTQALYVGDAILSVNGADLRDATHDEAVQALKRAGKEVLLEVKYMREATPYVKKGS

T3: SNTA1, Q13424
T3 sequence (Q13424 82-180, limits assumed, looked up): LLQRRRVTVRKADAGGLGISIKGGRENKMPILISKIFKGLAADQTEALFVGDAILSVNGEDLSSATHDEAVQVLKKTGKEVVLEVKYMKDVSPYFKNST

T4: HTRA3, P83110
T4 sequence (P83110 354-453, limits assumed, looked up): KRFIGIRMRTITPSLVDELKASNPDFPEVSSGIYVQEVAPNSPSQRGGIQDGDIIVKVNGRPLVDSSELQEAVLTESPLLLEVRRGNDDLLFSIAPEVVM

T5: LRRC7, Q96NW7
T5 sequence (Q96NW7 1440-1537, limits assumed, looked up): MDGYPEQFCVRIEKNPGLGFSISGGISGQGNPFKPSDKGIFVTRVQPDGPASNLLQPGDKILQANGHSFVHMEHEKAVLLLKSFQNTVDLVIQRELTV

T6: CARD11, Q9BXL7
T6 sequence (Q9BXL7 662-765, limits assumed, looked up): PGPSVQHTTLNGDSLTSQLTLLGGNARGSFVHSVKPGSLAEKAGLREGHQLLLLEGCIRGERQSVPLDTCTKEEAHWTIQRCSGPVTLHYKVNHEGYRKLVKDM

T7: GRIP1_4, Q9Y3R0
T7 sequence (Q9Y3R0 467-571, limits assumed, looked up): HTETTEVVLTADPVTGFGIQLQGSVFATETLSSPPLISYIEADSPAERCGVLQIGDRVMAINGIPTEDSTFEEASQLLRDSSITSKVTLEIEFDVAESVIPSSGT

T8: TIAM2, Q8IVF5
T8 sequence (Q8IVF5 885-986, limits assumed, looked up): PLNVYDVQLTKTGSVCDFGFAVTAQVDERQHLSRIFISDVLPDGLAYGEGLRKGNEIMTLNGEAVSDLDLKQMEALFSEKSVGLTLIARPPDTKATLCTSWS

T9: RHPN1, Q8TCX5
T9 sequence (Q8TCX5 508-602, limits assumed, looked up): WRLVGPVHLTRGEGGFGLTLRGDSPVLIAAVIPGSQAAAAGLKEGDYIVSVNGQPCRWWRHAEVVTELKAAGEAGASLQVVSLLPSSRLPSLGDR

T10: NHERF3_3, Q5T2W1
T10 sequence (Q5T2W1 238-333, limits assumed, looked up): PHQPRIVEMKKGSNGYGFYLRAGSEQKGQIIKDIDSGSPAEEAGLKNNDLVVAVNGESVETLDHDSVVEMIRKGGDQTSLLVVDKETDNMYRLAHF

T11: GRIP1_7, Q9Y3R0
T11 sequence (Q9Y3R0 999-1096, limits assumed, looked up): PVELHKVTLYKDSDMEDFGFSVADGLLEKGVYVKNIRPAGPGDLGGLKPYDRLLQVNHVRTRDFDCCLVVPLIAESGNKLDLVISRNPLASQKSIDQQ


Columns and labels:
Experiment in all cases: holdup assay
Design in all cases: key: below the threshold = too weak to quantify, mostly under pKd 3.1 to 4
Conditions in all cases: plain residues with an end cap or a label only (N-terminal biotin on a linker: ado-ado)
Inadl_2, Q8NI35 = biological target: Inadl_2, Q8NI35
GRASP, Q7Z6J2 = biological target: GRASP, Q7Z6J2
DFNB31_3, Q9P202 = biological target: T1, DFNB31_3, Q9P202
SNTB1, Q13884 = biological target: T2, SNTB1, Q13884
GRIP2_6, Q9C0E4 = biological target: GRIP2_6, Q9C0E4
SNTA1, Q13424 = biological target: T3, SNTA1, Q13424
HTRA3, P83110 = biological target: T4, HTRA3, P83110
LRRC7, Q96NW7 = biological target: T5, LRRC7, Q96NW7
Inadl_6, Q8NI35 = biological target: Inadl_6, Q8NI35
CARD11, Q9BXL7 = biological target: T6, CARD11, Q9BXL7
FRMPD2_3, Q68DX3 = biological target: FRMPD2_3, Q68DX3
GORASP1, Q9BQQ3 = biological target: GORASP1, Q9BQQ3
GOPC, Q9HD26 = biological target: GOPC, Q9HD26
SNX27, Q96L92 = biological target: SNX27, Q96L92
SCRIB_1, Q14160 = biological target: SCRIB_1, Q14160
DLG2_3, Q15700 = biological target: DLG2_3, Q15700
DLG1_3, Q12959 = biological target: DLG1_3, Q12959
GRIP1_4, Q9Y3R0 = biological target: T7, GRIP1_4, Q9Y3R0
TIAM2, Q8IVF5 = biological target: T8, TIAM2, Q8IVF5
RHPN1, Q8TCX5 = biological target: T9, RHPN1, Q8TCX5
GRIP2_4, Q9C0E4 = biological target: GRIP2_4, Q9C0E4
NHERF3_3, Q5T2W1 = biological target: T10, NHERF3_3, Q5T2W1
IL16_3, Q14005 = biological target: IL16_3, Q14005
GRIP1_7, Q9Y3R0 = biological target: T11, GRIP1_7, Q9Y3R0
MAGI3_2, Q5TCQ9 = biological target: MAGI3_2, Q5TCQ9
Inadl_10, Q8NI35 = biological target: Inadl_10, Q8NI35
Sequence of Inadl_10, Q8NI35 (Q8NI35 1673-1763): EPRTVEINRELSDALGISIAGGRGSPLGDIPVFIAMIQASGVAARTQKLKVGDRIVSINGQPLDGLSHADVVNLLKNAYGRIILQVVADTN

Sequence of MAGI3_2, Q5TCQ9 (Q5TCQ9 398-503): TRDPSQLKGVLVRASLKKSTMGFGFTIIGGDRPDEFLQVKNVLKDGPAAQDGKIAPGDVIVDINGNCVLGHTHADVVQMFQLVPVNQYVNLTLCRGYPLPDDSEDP
Sequence of GRASP, Q7Z6J2 (Q7Z6J2 96-193): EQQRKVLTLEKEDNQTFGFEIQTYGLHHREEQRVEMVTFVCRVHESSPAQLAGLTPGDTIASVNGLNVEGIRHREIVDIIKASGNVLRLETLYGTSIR
Sequence of GORASP1, Q9BQQ3 (Q9BQQ3 1-208): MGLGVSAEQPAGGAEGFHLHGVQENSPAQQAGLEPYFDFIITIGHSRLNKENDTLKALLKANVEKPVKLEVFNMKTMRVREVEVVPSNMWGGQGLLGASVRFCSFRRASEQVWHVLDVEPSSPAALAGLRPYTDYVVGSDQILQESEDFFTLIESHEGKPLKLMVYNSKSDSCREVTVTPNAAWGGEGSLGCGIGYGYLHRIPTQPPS
Sequence of Inadl_6, Q8NI35 (Q8NI35 1058-1167): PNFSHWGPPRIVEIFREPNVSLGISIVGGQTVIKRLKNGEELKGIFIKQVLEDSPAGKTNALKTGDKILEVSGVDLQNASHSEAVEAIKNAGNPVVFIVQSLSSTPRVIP
Sequence of DLG1_3, Q12959 (Q12959 457-571): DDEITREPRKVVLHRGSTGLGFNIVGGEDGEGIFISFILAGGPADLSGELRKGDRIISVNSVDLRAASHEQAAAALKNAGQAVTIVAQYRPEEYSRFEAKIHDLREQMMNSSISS
Sequence of SCRIB_1, Q14160 (Q14160 718-814): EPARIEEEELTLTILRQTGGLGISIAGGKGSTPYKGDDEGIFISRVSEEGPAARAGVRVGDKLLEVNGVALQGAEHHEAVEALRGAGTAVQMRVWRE
Sequence of GRIP2_6, Q9C0E4 (Q9C0E4 648-740): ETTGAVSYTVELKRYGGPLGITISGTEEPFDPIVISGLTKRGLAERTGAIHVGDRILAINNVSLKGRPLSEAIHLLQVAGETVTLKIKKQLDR
Sequence of Inadl_2, Q8NI35 (Q8NI35 238-335): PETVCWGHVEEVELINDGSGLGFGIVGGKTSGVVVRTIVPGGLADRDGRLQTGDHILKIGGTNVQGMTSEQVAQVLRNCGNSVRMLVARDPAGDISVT
Sequence of GRIP2_4, Q9C0E4 (Q9C0E4 446-548): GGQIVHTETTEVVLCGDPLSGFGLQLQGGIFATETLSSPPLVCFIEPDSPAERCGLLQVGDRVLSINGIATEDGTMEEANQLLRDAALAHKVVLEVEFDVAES
Sequence of IL16_3, Q14005 (Q14005 1107-1207): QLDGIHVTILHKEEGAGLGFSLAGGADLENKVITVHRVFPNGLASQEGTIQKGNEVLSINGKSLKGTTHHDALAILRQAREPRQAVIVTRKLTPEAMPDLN
Sequence of FRMPD2_3, Q68DX3 (Q68DX3 1073-1166): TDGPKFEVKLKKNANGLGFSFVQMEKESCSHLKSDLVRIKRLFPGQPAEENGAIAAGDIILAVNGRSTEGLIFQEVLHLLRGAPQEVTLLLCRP

| pKd (Inadl_2, Q8NI35) | pKd (GRASP, Q7Z6J2) | pKd (DFNB31_3, Q9P202) | pKd (SNTB1, Q13884) | pKd (GRIP2_6, Q9C0E4) | pKd (SNTA1, Q13424) | pKd (HTRA3, P83110) | pKd (LRRC7, Q96NW7) | pKd (Inadl_6, Q8NI35) | pKd (CARD11, Q9BXL7) | pKd (FRMPD2_3, Q68DX3) | pKd (GORASP1, Q9BQQ3) | pKd (GOPC, Q9HD26) | pKd (SNX27, Q96L92) | pKd (SCRIB_1, Q14160) | pKd (DLG2_3, Q15700) | pKd (DLG1_3, Q12959) | pKd (GRIP1_4, Q9Y3R0) | pKd (TIAM2, Q8IVF5) | pKd (RHPN1, Q8TCX5) | further results | Binder |
| --- | --- | --- | --- | --- | --- | --- | --- | --- | --- | --- | --- | --- | --- | --- | --- | --- | --- | --- | --- | --- | --- |
| below the threshold | 5.31 | 3.99 | below the threshold | below the threshold | below the threshold | below the threshold | below the threshold | below the threshold | below the threshold | below the threshold | below the threshold | below the threshold | 5.06 | 3.5 | 3.71 | below the threshold | below the threshold | 4.14 | 3.73 | pKd (GRIP2_4, Q9C0E4): below the threshold; pKd (NHERF3_3, Q5T2W1): below the threshold; pKd (IL16_3, Q14005): below the threshold; pKd (GRIP1_7, Q9Y3R0): below the threshold; pKd (MAGI3_2, Q5TCQ9): below the threshold; pKd (Inadl_10, Q8NI35): below the threshold | TISFTQTSQF [SLC1A1, P43005] |
| 3.5 | 3.62 | 3.88 | 4.84 | below the threshold | 4.46 | below the threshold | below the threshold | 3.88 | below the threshold | below the threshold | below the threshold | below the threshold | 5.42 | below the threshold | below the threshold | below the threshold | below the threshold | below the threshold | 4.17 | pKd (GRIP2_4, Q9C0E4): below the threshold; pKd (NHERF3_3, Q5T2W1): below the threshold; pKd (IL16_3, Q14005): below the threshold; pKd (GRIP1_7, Q9Y3R0): below the threshold; pKd (MAGI3_2, Q5TCQ9): 4.84; pKd (Inadl_10, Q8NI35): below the threshold | DPAESMESLV [PTPRG, P23470] |
| below the threshold | 3.47 | 3.5 | below the threshold | 4.58 | below the threshold | below the threshold | below the threshold | below the threshold | below the threshold | below the threshold | 4.59 | below the threshold | below the threshold | below the threshold | below the threshold | below the threshold | 3.9 | 4.59 | below the threshold | pKd (GRIP2_4, Q9C0E4): below the threshold; pKd (NHERF3_3, Q5T2W1): below the threshold; pKd (IL16_3, Q14005): below the threshold; pKd (GRIP1_7, Q9Y3R0): below the threshold; pKd (MAGI3_2, Q5TCQ9): 4.3; pKd (Inadl_10, Q8NI35): below the threshold | DFLSTFHIRI [CIB2, O75838] |
